B3: CYLD CAP-Gly3 (aa 460-582) (domain or fragment, human, UniProt Q9NQC7 460-582, looked up)
chain: LAMPPGNSHGLEVGSLAEVKENPPFYGVIRWIGQPPGLNEVLAGLELEDECAGCTDGTFRGTRYFTCALKKALFVKLKSCRPDSRFASLQPVSNQIERCNSLAFGGYLSEVVEENTPPKMEKE
notes: CYLD, human, third CAP-Gly domain with flanking residues, aa 460-582; 15N- or 15N,13C-labelled where it was the observed protein in NMR; also called pOPINS-CYLD 460-582; source: E. coli Rosetta2 (DE3) pLacI, purified (HisTrap, anion exchange, SEC)

Details in all cases: both partners purified
The target in test [1] is T1, Ubiquitin (UniProt P0CG47 1-76).
T1 construct: ubiquitin (mono-ubiquitin), the cut product of the ubiquitin precursors; 15N-labelled in the Ub-observed NMR experiments, unlabelled in ITC, crystallisation and the CAP-Gly-observed NMR
Put plainly: NMR titration; 15N-labelled Ub observed (BEST-TROSY, weighted chemical shift perturbations), unlabelled CAP-Gly domain added (3-fold molar excess for CAP-Gly3); 298 K; 20 mM Tris pH 7.4, 100 mM NaCl, 4 mM DTT.

For test [2], the target named is T1, Ubiquitin. Put plainly: crystal structure; CAP-Gly3 co-crystallised with 1.1 molar excess of Ub, sitting-drop vapor diffusion; molecular replacement.
Test [3] has as its target B3. Briefly: NMR titration; isotope-labelled CAP-Gly domain or variant observed (BEST-TROSY, chemical shift perturbations), unlabelled partner added (Ub at 3-fold molar excess, or NEMO ZnF); 298 K; 20 mM Tris pH 7.4, 100 mM NaCl, 4 mM DTT.
The target of test [4] is T2, CYLD CAP-Gly3 L475P (aa 467-582) (human, UniProt Q9NQC7 467-582, L475P).
T2 construct: CYLD, human, third CAP-Gly domain, aa 467-582, with L475P; Isotope-labelled for NMR; also called pOPINS-CYLD 467-582 L475P; source: E. coli Rosetta2 (DE3) pLacI, purified (HisTrap, anion exchange, SEC)
T2 sequence (looked up): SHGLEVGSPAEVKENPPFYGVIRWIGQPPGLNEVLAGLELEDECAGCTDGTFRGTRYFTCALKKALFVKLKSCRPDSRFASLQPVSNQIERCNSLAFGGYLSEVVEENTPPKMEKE
The description is as above.

B1: CYLD CAP-Gly2 (aa 226-313) (domain or fragment, human, UniProt Q9NQC7 226-313, looked up)
chain: ELPPLEINSRVSLKVGETIESGTVIFCDVLPGKESLGYFVGVDMDNPIGNWDGRFDGVQLCSFACVESTILLHINDIIPALSESVTQE
notes: CYLD, human, second CAP-Gly domain, aa 226-313; Isotope-labelled where it was the observed protein in NMR; also called pOPINS-CYLD 226-313; source: E. coli Rosetta2 (DE3) pLacI, purified (HisTrap, anion exchange, SEC)
Turning to B1, the binding result with Ubiquitin [1] is given as “binds”.

B2: CYLD CAP-Gly3 (aa 467-552), crystal form 1 (domain or fragment, human, UniProt Q9NQC7 467-552, looked up)
chain: SHGLEVGSLAEVKENPPFYGVIRWIGQPPGLNEVLAGLELEDECAGCTDGTFRGTRYFTCALKKALFVKLKSCRPDSRFASLQPVS
notes: CYLD, human, third CAP-Gly domain extended C-terminally, aa 467-552 (the crystallisation methods say 465-552); also called CAP-Gly3 (467-552); source: E. coli Rosetta2 (DE3) pLacI, purified (HisTrap, anion exchange, SEC)
As for B2, in the test with Ubiquitin [2], the binding result was “binds”. Consider B3, for which, in the test with Ubiquitin [1], the binding result is “binds”.

B4: NEMO ZnF domain (aa 383-419) (domain or fragment, UniProt Q9Y6K9 383-419, looked up)
chain: SQRRSPPEEPPDFCCPKCQYQAPDMDTLQIHVMECIE
notes: NEMO/IKKγ, zinc finger domain, aa 383-419; Expression and purification of this construct are not described; also called NEMO/IKKγ; pOPINB-NEMO 383-419
B4: the binding result in test [3] and in test [4] was “binds” each time.

B5: CYLD CAP-Gly3 (aa 467-565), crystal form 2 (domain or fragment, human, UniProt Q9NQC7 467-565, looked up)
chain: SHGLEVGSLAEVKENPPFYGVIRWIGQPPGLNEVLAGLELEDECAGCTDGTFRGTRYFTCALKKALFVKLKSCRPDSRFASLQPVSNQIERCNSLAFGG
notes: also called CAP-Gly3 (467-565); source: E. coli Rosetta2 (DE3) pLacI, purified (HisTrap, anion exchange, SEC)
For the molecule B5, in the test with Ubiquitin [2], the binding result was “binds”.

Values taken from publication PMC8511506 (Cell Reports, 2021).
